Patent US7666414B2, “Methods for treating prostate cancer using modified antibodies to prostate-specific membrane antigen” (Cornell Research Foundation, Inc., priority 2001, dated 2010)
Read-outs that look alike come from different tables or passages of the source.

Key:
[1] = molecular target: T1, LNCap membrane preparation (Homo sapiens, UniProt Q04609); assay: ELISA for binding of J415 deimmunized antibodies to LNCap membrane preparation
T1 construct: ELISA plates were coated with LNCap membrane preparation; endogenous in cells; host or cells: LNCap (LNCaP) human prostate carcinoma cells, membrane preparation
T1 sequence (Q04609 whole entry): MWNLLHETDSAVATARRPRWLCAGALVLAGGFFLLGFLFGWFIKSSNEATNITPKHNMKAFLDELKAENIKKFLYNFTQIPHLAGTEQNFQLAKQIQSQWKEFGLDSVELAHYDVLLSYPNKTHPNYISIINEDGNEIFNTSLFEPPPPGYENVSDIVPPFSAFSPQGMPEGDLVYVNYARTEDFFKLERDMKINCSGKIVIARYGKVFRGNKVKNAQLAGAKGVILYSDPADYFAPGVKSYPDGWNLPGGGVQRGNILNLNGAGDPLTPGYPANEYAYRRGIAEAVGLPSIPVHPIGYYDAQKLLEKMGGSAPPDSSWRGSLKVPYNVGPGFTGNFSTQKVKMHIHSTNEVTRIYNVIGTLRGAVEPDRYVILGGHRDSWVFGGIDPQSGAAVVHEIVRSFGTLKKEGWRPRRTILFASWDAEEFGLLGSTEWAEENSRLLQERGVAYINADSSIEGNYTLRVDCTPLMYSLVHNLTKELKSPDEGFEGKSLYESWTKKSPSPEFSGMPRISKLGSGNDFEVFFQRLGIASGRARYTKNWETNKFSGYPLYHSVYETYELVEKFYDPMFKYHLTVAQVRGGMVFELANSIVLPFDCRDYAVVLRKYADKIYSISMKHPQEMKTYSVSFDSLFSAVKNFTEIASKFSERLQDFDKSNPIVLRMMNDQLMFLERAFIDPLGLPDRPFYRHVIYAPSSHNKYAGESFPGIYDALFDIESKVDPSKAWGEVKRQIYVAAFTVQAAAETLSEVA
Description: The J415 deimmunized antibodies (including various combinations of the deimmunized light chain and heavy chain subunits) were tested in an ELISA for binding to LNCap membrane preparation following the protocol as detailed above. ELISA plates were coated with LNCap membrane preparation and blocked with 5% BSA in phosphate buffered saline. Doubling dilutions of the J415 chimeric antibody (murine variable heavy and light chain regions fused to human constant heavy and light chain regions, respectively) and the deimmunized antibodies were applied. Detection was with horseradish peroxidase conjugated goat anti-human IgG and donkey anti-mouse for chimeric and mouse antibodies respectively. Color was developed with o-phenylene diamine substrate.

[2] = molecular target: prostate specific membrane antigen (Homo sapiens, UniProt Q04609); assay: Competitive binding sites on PSMA; details: relative to J591, J533, E99 site
prostate specific membrane antigen, sequence (Q04609 whole entry): as above
Source text: To kill or ablate normal, benign hyperplastic, and cancerous prostate epithelial cells, a first antibody, e.g., a modified antibody, can be conjugated with a prodrug which is activated only when in close proximity with a prodrug activator. The prodrug activator is conjugated with a second antibody, e.g., a second modified antibody according to the present invention, preferably one that binds to a non-competing site on the prostate specific membrane antigen molecule. Whether two modified antibodies bind to competing or non-competing binding sites can be determined by conventional competitive binding assays. […] Monoclonal antibody J415, on the other hand, binds to a binding site that is non-competing with the site to which J591, J533, and E99 bind. Thus, for example, the first modified antibody can be one of J591, J533, and E99, and the second modified antibody can be J415. Alternatively, the first modified antibody can be J415, and the second modified antibody can be one of J591, J533, and E99. Drug-prodrug pairs suitable for use in the practice of the present invention are described in Blakely et al., “ZD2767, an Improved System for Antibody-directed Enzyme Prodrug Therapy That Results in Tumor Regressions in Colorectal Tumor Xenografts,” (1996) Cancer Research, 56:3287-3292, which is hereby incorporated by reference.

[3] = system: PSMA-positive human LNCaP tumors; assay: Biodistribution of 131I labeled MAbs in nude mice bearing LNCaP tumors; details: mouse, in vivo
Description: (§1) Prior to use, the cells were trypsinized, counted and suspended in Matrigel (Collaborative Biomedical Products, Bedford, Mass.). Nu/Nu Balb C mice 8-10 weeks of age were inoculated, in the right and left flanks, with a suspension of 5×10^6 LNCaP cells in Matrigel (BD Biosciences, Bedford Mass.). After a period of 14-18 days, tumors (100-300 mg) had developed. The PSMA-negative DU145 and PC3 cells were implanted in nude mice in an identical manner.
(§2) The PSMA-positive and PSMA-negative tumor bearing mice were injected, via the tail vein, with 80 KBq of the iodinated MAb (400 MBq/mg) in 200 μL of PBS (pH 7.4, 0.2% BSA). Groups of animals (3-8/group) were sacrificed after 2, 4 or 6 days. The major organs and tumors were recovered. The tissue samples were weighed and counted, with appropriate standards in an automatic NaI(Tl) counter. These measured relative activity data (cpm) were background corrected and expressed as a percentage of the injected dose per gram (% ID/g). […] J415, J591 and 7E11 were labeled with ^111In (100 MBq/mg). 80 KBq of the ^111In labeled MAbs were injected in groups of animals. The % ID/g in various organs and tumor tissues was determined at 2-6 days post injection in a similar way as described for ^131I labeled MAbs.

[4] = system: PSMA-positive human LNCaP tumors; design: species or system nude mice; details: mouse, in vivo
Description: as §1, §2
For the imaging studies, animals were injected with 2 MBq of ^111In-DOTA-J591. […]

B1: DIVH4/DIVK5: deimmunized J415 heavy chain version 4 combined with deimmunized J415 light chain version 5 (antibody, V domains shown)
VH: EVKLEESGGGLVQPGGSMKISCVASGFTFSNYWMNWVRQSPEKGLEWVAEIRSQSNNFATHYAESVKGRVIISRDDSKSSVYLQMNSLRAEDTAVYYCTRRWNNFWGQGTTVTVSS
VL: NIVMTQFPKSMSASAGERMTLTCKASENVGTYVSWYQQKPTQSPKMLIYGASNRFTGVPDRFSGSGSGTDFILTISSVQAEDLVDYYCGQSYTFPYTFGGGTKLEMK
- binding to LNCap as compared to the chimeric antibody [1]: equivalent binding

B2: J415: murine monoclonal antibody to human PSMA, hybridoma ATCC HB-12109 (antibody, V domains shown)
VH: EVKLEESGGGLVQPGGSMKLSCVASGFTFSNYWMNWVRQSPEKGLEWVAEIRSQSNNFATHYAESVKGRVIISRDDSKSSVYLQMNNLRAEDTGIYYCTRRWNNFWGQGTTLTVSS
VL: NIVMTQFPKSMSISVGERVTLTCKASENVGTYVSWYQQKPEQSPKMLIYGASNRFTGVPDRFTGSGSATDFILTISSVQTEDLVDYYCGQSYTFPYTFGGGTKLEMK
- binding site on the prostate specific membrane antigen molecule [2]: non-competing
- blood activity [3]: significantly lower compared to that of 7E11
- tumor uptake [3]: 12.2±3.24 % injected dose/gram
- tumor/blood and tumor/muscle ratios [3]: significantly higher
- blood activity [4]: 2.63±0.23 % ID/g
- tumor/blood ratios [4]: significantly higher

B3: J533: murine monoclonal antibody to human PSMA, hybridoma ATCC HB-12127 (antibody, V domains shown)
VH: EVQLQQSGPELVKPGASVKMSCKASGYTFTGYVMHWVKQKPGQVLEWIGYINPYNDVTRYNGKFKGKATLTSDKYSSTAYMELSGLTSEDSAVYYCARGENWYYFDSWGRGATLTVSS
VL: DIVLTQSPASLAVSLGQRATISCRASESIDSYDNTFMHWYQQKPGQPPNLLIFRASILESGIPARFSGSGSGTDFTLTIYPVEADDVATYYCHQSIEDPYTFGGGTKLEIK
- binding site on the prostate specific membrane antigen molecule [2]: bind to competing binding sites

B4: E99: murine monoclonal antibody to human PSMA, hybridoma ATCC HB-12101 (antibody, V domains shown)
VH: QVQLKESGPGLVASSQSLSITCTVSGFSLTAYGINWVRQPPGKGLEWLGVIWPDGNTDYNSTLKSRLNIFKDNSKNQVFLKMSSFQTDDTARYFCARDSYGNFKRGWFDFWGQGTTLTVSS
VL: NIVMTQSQKFMSTSPGDRVRVTCKASQNVGSDVAWYQAKPGQSPRILIYSTSYRYSGVPDRFTAYGSGTDFTLTITNVQSEDLTEYFCQQYNSYPLTFGAGTKLELK
- binding site on the prostate specific membrane antigen molecule [2]: bind to competing binding sites
